The numbers were not newly measured in patent publication US7514409B2, “VLA-4 antagonists” (Merck & Co., Inc., priority 2004, dated 2009), which cites them from elsewhere.

The data set deals with T1, VLA-4 (Homo sapiens, UniProt P13612).
T1 construct: host or cells: circulating VLA-4-bearing leukocytes of trial subjects (in vivo)
Particulars: early clinical trials.

Turning to “natalizumab: humanized monoclonal antibody against α4”, the “lymphocytosis (a surrogate marker for blockade of VLA-4 function)” value is recorded as “observed” and the receptor occupancy is above 80%.
